Results: PMC11655906
Where “and” joins values, the source holds several entries; their conditions need not be identical. Equal values may be shown once.

Target: mouse Flower isoform 4 with C-terminal mTFP (mFwe4-mTFP) (mouse)
Test: native gel or EMSA; native PAGE (4-16% Bis-Tris, G-250 additive) of lysates of transfected Fwe KO mouse CTLs (modified RIPA: 50 mM Tris pH 7.5, 50 mM NaCl, 1% Triton-X-100, 1 mM EDTA), western blot with anti-DsRed recognising mTFP; oligomeric state read from band size

Sequence of mouse Flower isoform 4 with C-terminal mTFP (mFwe4-mTFP) (natural protein) (Q8BG21 whole entry, canonical isoform): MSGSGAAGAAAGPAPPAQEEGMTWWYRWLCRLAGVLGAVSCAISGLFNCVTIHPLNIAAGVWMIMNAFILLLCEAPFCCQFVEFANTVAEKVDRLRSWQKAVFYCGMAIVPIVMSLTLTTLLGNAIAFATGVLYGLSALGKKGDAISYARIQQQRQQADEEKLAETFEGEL

How did the stoichiometry N turn out when “mouse Flower isoform 4 with C-terminal mTFP (mFwe4-mTFP) (natural protein)” was run?
The stoichiometry N was 4 and 6.
